The record followed here is paper doi:10.64898/2025.12.11.692727, “Nucleophagy removes cytotoxic trapped PARP1” (bioRxiv, 2025).

The target of the test is T1, PARP1, recombinant, full length (printed as GFP-PARP1 in the results) (UniProt P09874 1-1014).
T1 construct: Full-length PARP1 cloned into the NcoI and BamHI sites of the pNIC28 vector; The results call the purified protein GFP-PARP1; the methods describe full-length PARP1 in pNIC28 without naming GFP; source: E. coli expression system, purified
Description: pull-down; in vitro; PARP1 (2.5 µM) loaded on PARP1-trap beads, TEX264 (2.5 µM) added, 2 hrs at 4°C; 50 mM HEPES pH 7.4, 500 mM NaCl, 0.01% Triton X-100, 1 mM TCEP; stringent washes with 0.1% Triton X-100; Western blot. The settings on record: both partners purified.

T1 sequence (P09874 whole entry): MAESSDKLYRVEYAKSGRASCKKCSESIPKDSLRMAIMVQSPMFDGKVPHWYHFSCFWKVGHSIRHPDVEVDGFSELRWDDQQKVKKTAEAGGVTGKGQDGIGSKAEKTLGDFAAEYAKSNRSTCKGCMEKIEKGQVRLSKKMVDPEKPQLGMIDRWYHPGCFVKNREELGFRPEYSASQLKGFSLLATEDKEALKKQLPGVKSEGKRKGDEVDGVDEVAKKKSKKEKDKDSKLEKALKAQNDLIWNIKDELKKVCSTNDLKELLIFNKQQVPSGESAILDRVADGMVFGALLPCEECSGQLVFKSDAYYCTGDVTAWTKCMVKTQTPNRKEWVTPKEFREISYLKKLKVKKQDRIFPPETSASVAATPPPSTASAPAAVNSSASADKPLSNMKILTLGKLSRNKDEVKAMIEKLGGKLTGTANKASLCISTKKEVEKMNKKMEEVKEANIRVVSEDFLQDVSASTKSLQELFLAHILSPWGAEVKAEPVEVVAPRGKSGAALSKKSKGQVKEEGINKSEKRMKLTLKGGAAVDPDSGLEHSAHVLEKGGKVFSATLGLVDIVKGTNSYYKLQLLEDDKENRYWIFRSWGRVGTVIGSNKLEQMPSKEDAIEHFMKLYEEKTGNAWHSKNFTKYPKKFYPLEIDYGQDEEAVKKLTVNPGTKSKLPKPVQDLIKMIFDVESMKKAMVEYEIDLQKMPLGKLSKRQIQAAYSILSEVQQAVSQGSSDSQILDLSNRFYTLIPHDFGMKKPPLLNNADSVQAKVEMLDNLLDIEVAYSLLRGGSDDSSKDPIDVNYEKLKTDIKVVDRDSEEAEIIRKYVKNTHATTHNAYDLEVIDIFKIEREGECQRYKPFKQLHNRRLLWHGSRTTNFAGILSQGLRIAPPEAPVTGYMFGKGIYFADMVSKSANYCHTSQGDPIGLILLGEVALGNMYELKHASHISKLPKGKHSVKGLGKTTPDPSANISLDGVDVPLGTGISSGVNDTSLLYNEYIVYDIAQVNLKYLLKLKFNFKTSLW

B1: TEX264 C-terminal half (186-313), recombinant (domain or fragment, UniProt Q9Y6I9 186-313, looked up)
chain: RQGDFYVPEMKETEWKWRGLVEAIDTQVDGTGADTMSDTSSVSLEVSPGSRETSAATLSPGASSRGWDDGDTRSEHSYSESGASGSSFEELDLEGEGPLGESRLDPGTEPLGTTKWLWEPTAPEKGKE
notes: The range 186-313 of the methods is tied to the 'C-terminal half' of the results by its position; source: E. coli expression system, purified
With B1, the binding result is on record as “binds”.
